Read-outs that look alike come from different tables or passages of the source. Square brackets hold non-standard residues; d marks the D form. Primed or numbered codes have the meaning given here. Ends that are not written are not given here. ACPC = cyclic β-residue replacing an α-residue; APC = 3-aminopyrrolidine-4-carboxylic acid; ACPC″ = not defined here; APC″ = not defined here; Aib = CC(C)(N)C(=O)O
B1: SEQ. ID. NO: 13 (peptide)
peptide: HXEGTFTSDXSXYLEXQAAXEFIXWLVXGRG
modifications: C-terminal primary amide; non-natural residues are marked only by a key given as a drawing (CHEM-US-00002/00003), positions not readable in the text

How the values were obtained:
Experiment in all cases: cell-based or functional assay
[1] = molecular target: T1, human GLP-1 receptor (human, UniProt P43220 24-463)
[2] = molecular target: T1, human GLP-1 receptor; remark: listed apart in the source
[3] = molecular target: T1, human GLP-1 receptor; remark: listed apart in the source

| Binder | EC50 (nM), cAMP production [1] | cAMP production, AVERAGES at M Concentrations: -7 [1] | cAMP production, AVERAGES at M Concentrations: -8 [1] | cAMP production, AVERAGES at M Concentrations: -9 [1] | cAMP production, AVERAGES at M Concentrations: -10 [1] | cAMP production, AVERAGES at M Concentrations: -11 [1] | cAMP production, AVERAGES at M Concentrations: -12 [1] | cAMP production, AVERAGES at M Concentrations: -13 [1] | EC50 nM, cAMP production in HEK293 cells [2] | Max Response (% GLP-1 max), cAMP production [2] | EC50 (nM), cAMP production [3] |
| --- | --- | --- | --- | --- | --- | --- | --- | --- | --- | --- | --- |
| H[Aib]EGTFTSD[Aib]S[ACPC]YLE[ACPC]QAA[ACPC]EFI[ACPC]WLV[APC]GRG-NH2 [α/β-Peptide SEQ. ID. NO: 7] | 3.2 nM | 88.3 | 63 | 35 | 4.47 | 3.5 | 2.81 | 3.83 | 3.2 nM | 88 % GLP-1 max |  |
| HAEGTFT[ACPC″]DVS[ACPC″]YLE[ACPC″]QAA[ACPC″]EFI[ACPC″]WLV[APC″]GRG-NH2 (reading uncertain) [α/β-peptide SEQ. ID. NO: 6] |  | 100 | 99.2 | 42.8 | 18 |  | 5.69 | 5.69 | > 100 nM |  |  |
| B1 |  |  |  |  |  |  |  |  |  |  | > 100 nM |

— patent US20170320928A1 (WISCONSIN ALUMNI RESEARCH FOUNDATION, published 2017)
